Experimental data published in article PMC3354639 (Chembiochem, 2012).
No end group written: not given here. *: point of attachment. BODIPY(FL) = CC1=CC(C)=[N+]2C1=Cc1ccc(CCC(=O)*)n1[B-]2(F)F

Experiments:
Assay in all cases: flow cytometry on cells
[1] = target: construct 1 cleaved at the Ala-Arg site by OmpT-AR1 (MDM2-polyArg part) (UniProt Q00987 25-125)
[2] = target: autoinhibited-substrate-MDM2-polyArg (construct 1) (UniProt Q00987 25-125)
[3] = target: MDM2-polyArg (construct 2) (UniProt Q00987 17-125)

Binder: {BODIPY(FL)}-GTSFAEYWNLLSP [PMI peptide conjugated to the fluorescent dye BODIPY]
- binding result [1]: binds
- fold reduction in fluorescence against construct 2 [2]: > 10 fold
- binding result [3]: binds
